Results from patent publication US20250326848A1 (SHANGHAI HENLIUS BIOTECH, published 2025).

Assays:
[1] = biological target: T1, human CD47 on primary human platelets (human, UniProt Q08722 19-323); test: FACS, binding to primary human platelets, donor 2
T1 construct: whole, on cells

[2] = biological target: T1, human CD47 on primary human platelets; test: FACS, binding to primary human platelets, donor1

EC50 (read off the curve) [1]: ~0.3 nM | EC50 (read off the curve) [2]: ~0.7 nM
B1: M1 #21, anti-CD47 antibody (WO2022063316A1) (antibody, V domains shown)
VH: QVQLQQWGAGLLKPSETLSLTCAVYGGSFSGYYWSWIRQPPGKGLEWIGEINQSGSTNYNPSLKSRVTISVDTSKNQFSLRLSSVTAADTAMYYCARFTGRPYYGMDVWGQGTTVTVSS
VL: SYELTQPPSVSATPGQRVTISCSGSESNIGSHKVKWYQQFAGAAPRLLIHGNDQRFSGVPDRFSGSKSGTSASLAISGLQSEDEADYYCAAWDDSLYGRVFGGGTKLTVL
